{"source": "paper PMC8249653", "substrate": "C[C@H](O)C(=O)O", "assay": "cells, lysate or membranes", "conditions": "pH 7.3, 37 °C, 2 min uptake, 1-100 µM L-lactate, labelled compound (14C tracer spike)", "data": [{"protein": "Slc16a13 (SLC16A13/MCT13) (Mus musculus) (protein) MVRRAEPPDGGWGWMVVLSAFFQSALVFGVLRSFGVFFVEFVAAFEEQAARVSWIASIGIAVQQFGSPIGSALSTKLGPRPVVMTGGILAALGMLLASFATSLTHLYLSIGLLSGSGWALTFTPTMACLSRYFSQRRSLAMGLALTGVGISSFAFAPLFQWLINNYAWRGALLLVSALSLHLMACGALLRPLSLTEDAAVGGPGAQITSLLRHGPFLRYTAALTLINTGFFIPYVHLVAHLQDLGWDPLPAAFLLSVAAVSDLVGRVASGWLGDAVPGPVARLLMLWTTLTGVSLALFPVAQASSTLVVLAVAYGFTSGALTPVAFSVLPELVGTGRIYCGMGLVQMIESIGGLLGAPLSGYLRDVTGNYTASFVVAGAFLLAGSGVLLTLPHFFSCISVSTSRPQDLVIEASDTKIPLPKEEGLGEN", "values": [{"measurement": "Km", "value": "0.47 ± 0.35", "unit": "µM"}]}]}
